Laboratory results published in PMC11455607.
Read-outs that look alike come from different tables or passages of the source.

Assays:
[1] = target: Cy3-CRX HD (UniProt O43186 31-107); assay: smTIRFM
[2] = target: T1, Cy3-CRX HD;NRL DBD (;, UniProt O43186;P54845 31-107;128-237, |); assay: smTIRFM
[3] = target: T1, Cy3-CRX HD;NRL DBD; assay: smTIRFM; remark: listed apart in the source
[4] = target: CRX HD (His) (UniProt O43186 31-107); assay: BLI
[5] = target: T2, CRX HD R41Q (UniProt O43186 31-107, R41Q); assay: BLI
T2 sequence (O43186 31-107 R41Q): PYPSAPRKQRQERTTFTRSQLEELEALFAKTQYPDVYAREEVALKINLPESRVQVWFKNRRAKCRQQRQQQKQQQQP

[6] = target: T3, CRX HD E42K (UniProt O43186 31-107, E42K); assay: BLI
T3 sequence (O43186 31-107 E42K): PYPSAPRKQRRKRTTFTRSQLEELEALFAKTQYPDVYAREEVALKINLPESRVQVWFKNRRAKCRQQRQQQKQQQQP

[7] = target: CRX HD R90W (UniProt O43186 31-107, R90W); assay: BLI
Sequence of CRX HD R90W (O43186 31-107 R90W): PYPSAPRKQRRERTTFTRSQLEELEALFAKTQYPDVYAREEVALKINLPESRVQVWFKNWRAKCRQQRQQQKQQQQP

[8] = target: T2, CRX HD R41Q; assay: SEC-MALS
[9] = target: T3, CRX HD E42K; assay: SEC-MALS

T1 sequence (O43186 31-107, chain 1 of 2): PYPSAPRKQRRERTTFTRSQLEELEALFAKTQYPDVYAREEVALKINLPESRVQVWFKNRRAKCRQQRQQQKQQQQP
T1 sequence (P54845 128-237, chain 2 of 2): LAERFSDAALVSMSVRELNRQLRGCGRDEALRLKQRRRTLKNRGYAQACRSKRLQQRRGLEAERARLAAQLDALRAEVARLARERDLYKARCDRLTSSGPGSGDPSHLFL
Sequence of CRX HD (His) (O43186 31-107): as the sequence (O43186 31-107, chain 1 of 2) above
Sequence of Cy3-CRX HD (O43186 31-107): as the sequence (O43186 31-107, chain 1 of 2) above

B1: NRE-Ret4 38-mer biotinylated (dsDNA)
DNA 1: CCAGATGCTGATTCAGCCAGGAGCTTAGGAGGGGGAGG
DNA 2: CCTCCCCCTCCTAAGCTCCTGGCTGAATCAGCATCTGG
Kd [1]: 55.1 nM | Kd [2]: 28 nM | Kd [3]: 39.6 nM

B2: Ret4 20-mer biotinylated (dsDNA)
DNA 1: CAGGAGCTTAGGAGGGGGAG
DNA 2: CTCCCCCTCCTAAGCTCCTG
Kd [4]: 430 ± 30 nM | Kd [5]: 1250 ± 30 nM | Kd [6]: 30 ± 10 nM | Kd [7]: 900 ± 30 nM

B3: Ret4 21-mer (dsDNA)
DNA 1: CCAGGAGCTTAGGAGGGGGAG
DNA 2: CCTCCCCCTCCTAAGCTCCTG
binding result [8]: binds | binding result [9]: binds
